assay: soluble fraction after stress (log2 fold change); higher = more stays soluble; pooled small domains, quantitative proteomics; details: stress: pH 4
In short: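 Aggregation propensity is read out as the fold change in how much of each domain remains soluble after acid stress. The custom small-domain libraries were pooled, held at pH 4 and analysed with high-throughput quantitative proteomics. On the log2 scale used, higher values mean more of the domain stayed soluble.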

Sequence | soluble fraction (log2)
HMDVTSLDMLRFLMDQHGLRQQDLSELGSQGVVSEILAGKRELNLRHIGALARRFKVPPEVFLPA | -0.619
HMLGSQQAYTDALRLTGLPVDIEVIESDRLPFLIPMRYSLDQHLIEVNVRYPDTRAIRVQQMVEELFHA | -0.415
HMNLDVEQIKKEALNQLIEIGNENDGIVTIKDFKKIDDISSLDEDDIEDIRNLLIENNIEIFE | -0.641
HMSSEYARFFSGNYYEVLGVAKNASYDEIKAAWKKLVKEYHPDLHPQRQEEFTKIIQKINEAYEYFKKMH | -0.201
HMQTKEVDYGTFMSMIDEKNIGTVEIGDSQIVFTDKDNKNLYETGVMNDPDLAQRLHDAGATFSS | 0.0149
HMEDYYKEDYYTEVLKIPKEYIKGFQYYLIEDAEFVNALNAKNKTMTSFLAKKLASDYIEIIHQEQ | -1.44
HMGETYTIPDVRGYTLEDAMELPEIKENGFTIIEGRQIVDADVPVGQIISQTPEAESIAKSNVKEITVNIS | -0.367
HMVNGTPADPYDVLGVESSASPEELRAAWQTLVRQNHPDQLMARGVPLEAVKLAEARLVAINQAWDDLTK | -1.33
HMGEELIEIQNLRNKERREAEAILKNLDLVPVIQEQFDDTVPINRVITTDPGPDSTVKKGTTVMIYVSKGP | 0.289
HMVTARMPDLFGLDEATAQRMVSNAGLTLKTEYAYSDQAEGYVFDQTPEANAEVRRGGTVTAMIS | -0.375
HMDASVTIEQVERMVQANVSDDVIISQLQGRGAAQNLSTDDIINLTQKGISAEVIKAYQSAG | -0.934
HMQNESGLFTMSDLWEAGLMGSENASRKRAAVGAFLGIGFGNGKQFLKRLNHFGVTKEEWESALEQLGE | -0.447
HMNSEFPFNGGRIVDNVPANRLQIFFDEKPDADVRTRLKQNGFRWAPNSGAWQSYRHGYTLDWARREFNA | -0.197
HMQITDSGAIETIIDKIIADNPGQVTQYLSGKDKVFGFFVGQTMKASQGKANPAEVNKILQEKLK | -0.029
HMITPNQAAVTLKVSTSTLRRWSSDFEPFLSPRKGVKRLYTIEDIATLKRIQGLYKQGMNTAQVQA | -0.0332
HMLSSEQQQKLDSLSRKELEVAELVSHGATNKMIARTMNITERTVKAHLTAIFQKMNIPDRLSLAIFFRDL | 0.0769
HMKDHLRFEILSFAGDLRNGVVKTRQEFETIFAFYDKYEEIITALKVHNGYVDSEFDFIKEKFKELKSK | 0.194
HMKREETLKALATKNANYVARSGRRYSFEPMNPYERRIIHTAVQEIEGVTSRSIGSGMDRRVLIEPEGGV | -0.234
HMDTIYMVVAKNIKYYRLIKSMSKKDLAEAVNVTPMAISNYENGKRKPEIDILKKIANVLGVRVVDFLTVR | -0.194

Sequence | soluble fraction (log2)
HMTQTGEVIRWDAERGFGFIATADGRRHVFFHVRDFRGGAAPGVGLRVGFEEIQVGGKGPRAMDVRPL | -0.491
HMDTEVVMINVVGMNIDKAKNSLNHKNILYKISYQDVSEGENNVVLKQSISSNTKIKKGQVVSLVVGKLN | -0.0691
HMENPLVEVVVPVLNEERILKANIETLHHFLRTQPGFNFRITIADNGSTDKTQAIANDLTNSHAVIRV | -0.441
HMQINDSSVVQKAVNDVIDQNSKAVSDYWDGKEGAAKFLMGQVMKLTRGQANPDLANQLILTRLQQERV | 0.182
HMDNMFVEERQALIYEELQSNGRVRVKDLSKKFNVSEDLIRKDLNVLEKEGKLRKIYGGAVLAK | 0.071
HMDDPLSQLTPREREVLELMASGASNQGIADALVITVRAVEKYVSSIFGKLGLPSTGSESRRVLAVLTFLR | -1.32
HMDPAFAQHHDRALSILHSRGYEVHDSDTDLHWARPVLEFEAYKGSLEYKIVMSYPDLNIIEERVD | -0.685
HMTIFGWQQDETGKWYRNADGTFYENGWKEIDGAQYYFDENGYVTTGWLELDGKDYYFDEEGKYDSTKVR | -1.25
HMENPMIEQLKQFIEAQGLTQGQLAAKLGVSTATVNQYLQGKYKGDTAALDAKAAQLMARSREK | 0.175
HMGIKDRIVYIMEKEKLSIPLFAKKIGIGPSTLLHIIRGKNAPSLQVVQAIHKAYPDIDLNWLI | 0.0346
HMAKIKVFELKNQINSLIKNKIESKDIIDFIETNFGVKKSHSSALEENEANFIKNYFVHADKA | -0.141
HMGSTYGISRVDNETSRTHGWLVTIQRRGVIYRKHFSDGVFGGKQRSFAAAKEYRDEVIAAHP | -0.00453
HMPIMDSDDKYEALGIPQEWIAVVKKAGYQTVEALKAVENPNKLHQELSVMNKKEKLGLAGLTPEMVKAWL | -0.301
HMSMRILNHTVVKILKRYRIATDEQLQPLLDEAERSGRSLQDVVLDAKLVSETELTKLFADYAD | 0.421
HMAATSTGFPGVEVRGNSIRVFFMYKRDRHAHTLPLEPTRNNIKHADQLRSAALFALRNGTYNEADFFPHS | -0.509
HMLSRTYDSSGPDVKIRGTAQTVADKYMSLARDAQSSGDRVMAENYLQHAEHYNRIIAAAQAQ | 0.221
HMSKSENLYSAARELIPGGVNSPVRAFTGVGGTPLFIEKADGAYLYDVDGKAYIDYVGSWGPMVLGHNHP | -0.279
HMAELVISVKADGTIHYQDRQLTKEALAAVLETRPEALLNLYVDEKAPFEAFVGVVDIARLKRGGHFVIST | -0.947
